Test results reported in patent publication US20250186541A1, “DLL3 TARGETING PEPTIDES AND CONSTRUCTS THEREOF” (MARIANA ONCOLOGY INC., priority 2023, published 2025).
Numbered stars: 1 amine (or outer) side, 2 acyl side, 3 side chain; on linkers, the order of the positions; unused ones are H or OH. Bridge positions count the residues as written; N and C are the ends. Square brackets hold non-standard residues; d marks the D form. * marks the point of attachment. Ala(piperidin-4-yl) = O=C([C@H](CC1CCN([*:3])CC1)N[*:1])[*:2]; DOTA = O=C(O)CN1CCN(CC(=O)O)CCN(CC(=O)*)CCN(CC(=O)O)CC1; Phe(4-CF3) = N[C@@H](Cc1ccc(C(F)(F)F)cc1)C(=O)O; Trp(5-F) = N[C@@H](Cc1c[nH]c2ccc(F)cc12)C(=O)O; Trp(7-Me) = Cc1cccc2c(C[C@H](N)C(=O)O)c[nH]c12; 1Nal = N[C@@H](Cc1cccc2ccccc12)C(=O)O; 2Nal = N[C@@H](Cc1ccc2ccccc2c1)C(=O)O; NMeChg = CN[C@H](C(=O)O)C1CCCCC1; tBuAla = CC(C)(C)C[C@H](N)C(=O)O; αMeD = C[C@](N)(CC(=O)O)C(=O)O; AllylGly = C=CC[C@H](N)C(=O)O; PAF(DOTA) = not defined here; αMeP = C[C@@]1(C(=O)O)CCCN1; NMeS = CN[C@@H](CO)C(=O)O; PAF = not defined here; Ahx = NCCCCCC(=O)O

T1: Biotinylated human DLL3 (human, UniProt Q9NYJ7 27-492, biotinylated (site not stated))
T1 construct: also called Delta-like ligand 3; Delta Like Canonical Notch Ligand 3
T1 sequence (looked up): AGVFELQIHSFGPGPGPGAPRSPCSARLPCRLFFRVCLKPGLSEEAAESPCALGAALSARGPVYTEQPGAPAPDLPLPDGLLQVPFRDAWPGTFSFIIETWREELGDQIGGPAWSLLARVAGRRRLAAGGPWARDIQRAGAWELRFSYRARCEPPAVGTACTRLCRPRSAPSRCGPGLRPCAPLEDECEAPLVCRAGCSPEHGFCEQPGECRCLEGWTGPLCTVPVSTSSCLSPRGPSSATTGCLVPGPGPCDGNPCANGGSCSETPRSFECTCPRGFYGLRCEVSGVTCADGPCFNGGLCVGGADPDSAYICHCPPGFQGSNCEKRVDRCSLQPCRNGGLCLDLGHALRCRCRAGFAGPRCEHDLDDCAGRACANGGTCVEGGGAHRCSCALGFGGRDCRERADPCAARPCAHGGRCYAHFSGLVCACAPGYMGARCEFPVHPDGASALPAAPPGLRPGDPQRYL


Legend:
[1] = target: T1, Biotinylated human DLL3; assay: SPR, biotin-hDLL3 on SA chip; Cpd 59, a separate compound
[2] = target: DLL3 on SHP-77 cells (human) (UniProt Q9NYJ7); assay: 177Lu-labelled peptide on SHP-77 cells, 1 h 37 C, gamma count of bound fraction
Sequence of DLL3 on SHP-77 cells (human) (Q9NYJ7 27-618 limits assumed): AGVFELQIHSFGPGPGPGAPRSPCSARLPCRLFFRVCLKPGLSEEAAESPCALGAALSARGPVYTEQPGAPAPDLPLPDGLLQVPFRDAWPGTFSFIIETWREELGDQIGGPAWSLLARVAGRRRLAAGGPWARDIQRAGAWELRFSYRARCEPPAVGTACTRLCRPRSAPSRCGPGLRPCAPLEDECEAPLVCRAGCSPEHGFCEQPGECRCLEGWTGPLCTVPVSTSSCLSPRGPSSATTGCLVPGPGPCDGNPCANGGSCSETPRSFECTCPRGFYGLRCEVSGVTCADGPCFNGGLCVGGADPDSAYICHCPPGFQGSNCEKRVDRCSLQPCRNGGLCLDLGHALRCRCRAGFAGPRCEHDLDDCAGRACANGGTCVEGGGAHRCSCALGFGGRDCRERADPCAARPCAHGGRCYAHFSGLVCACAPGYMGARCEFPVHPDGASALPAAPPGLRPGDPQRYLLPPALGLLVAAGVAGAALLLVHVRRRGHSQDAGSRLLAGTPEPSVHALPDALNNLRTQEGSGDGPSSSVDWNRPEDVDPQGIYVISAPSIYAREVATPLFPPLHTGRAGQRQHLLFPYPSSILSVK

[3] = target: T1, Biotinylated human DLL3; assay: SPR, biotin-hDLL3 on SA chip; Cpd 58, a separate compound
[4] = target: T1, Biotinylated human DLL3; assay: SPR, biotin-hDLL3 on SA chip; Cpd 56, a separate compound
[5] = target: Biotinylated human DLL3 (human) (UniProt Q9NYJ7); assay: SPR, biotin-hDLL3 on SA chip

% Binding [2]	Binder	also measured
	Ac-MSDC[Phe(4-CF3)]LQWNCPFD[dK](DOTA)-NH2 (disulfide 4-10; SMILES CSCC[C@H](NC(C)=O)C(=O)N[C@@H](CO)C(=O)N[C@@H](CC(=O)O)C(=O)N[C@H]1CSSC[C@@H](C(=O)N2CCC[C@H]2C(=O)N[C@@H](Cc2ccccc2)C(=O)N[C@@H](CC(=O)O)C(=O)N[C@H](CCCCNC(=O)CN2CCN(CC(=O)O)CCN(CC(=O)O)CCN(CC(=O)O)CC2)C(N)=O)NC(=O)[C@H](CC(N)=O)NC(=O)[C@H](Cc2c[nH]c3ccccc23)NC(=O)[C@H](CCC(N)=O)NC(=O)[C@H](CC(C)C)NC(=O)[C@H](Cc2ccc(C(F)(F)F)cc2)NC1=O) [Cpd #59]	Kd [1]: 149 nM
10%	Ac-[Ala(piperidin-4-yl)][NMeS]DC[1Nal][tBuAla][PAF(DOTA)][2Nal]NC[αMeP]FD-NH2 (disulfide 4-10; reading uncertain; also: 177Lu chelated, printed as Ac-[3-(4-piperidinyl)-Ala]-(NMe-Ser)-D-C(3)-(1Nal)-(t-Bu-Ala)-[PAF(DOTA)]-(2Nal)-N-C(3)-(aMe-P)-F-D-CONH2; (3)=disulfide; 177Lu chelated) [[177Lu]Lu-Cpd #191]	
	Ac-MSDC[Trp(5-F)]LQWNCPFD[dK](DOTA)-NH2 (disulfide 4-10) [Cpd #58]	Kd [3]: 42 nM
8%	Ac-[dA]S[αMeD]C[1Nal][tBuAla]Q[2Nal]NC[αMeP]FD[dK](DOTA)-NH2 (disulfide 4-10; also: 177Lu chelated) [[177Lu]Lu-Cpd #168]	
	Ac-MSDC[1Nal]LQWNCPFD[dK](DOTA)-NH2 (disulfide 4-10; SMILES CSCC[C@H](NC(C)=O)C(=O)N[C@@H](CO)C(=O)N[C@@H](CC(=O)O)C(=O)N[C@H]1CSSC[C@@H](C(=O)N2CCC[C@H]2C(=O)N[C@@H](Cc2ccccc2)C(=O)N[C@@H](CC(=O)O)C(=O)N[C@H](CCCCNC(=O)CN2CCN(CC(=O)O)CCN(CC(=O)O)CCN(CC(=O)O)CC2)C(N)=O)NC(=O)[C@H](CC(N)=O)NC(=O)[C@H](Cc2c[nH]c3ccccc23)NC(=O)[C@H](CCC(N)=O)NC(=O)[C@H](CC(C)C)NC(=O)[C@H](Cc2cccc3ccccc23)NC1=O) [Cpd #56]	Kd [4]: 1.13 nM
6%	Ac-[Ala(piperidin-4-yl)]SD[AllylGly][1Nal][tBuAla][PAF(DOTA)][2Nal]N[AllylGly][αMeP]FD-NH2 (staple 4-10; reading uncertain; also: 177Lu chelated) [[177Lu]Lu-Cpd #200]	
	Ac-[Ala(piperidin-4-yl)]SDC[1Nal][NMeChg][PAF](DOTA)[Trp(7-Me)]NC[αMeP]FD-NH2 (disulfide 4-10; reading uncertain; also: printed as Ac-[3-(4-piperidinyl)-Ala]-S-D-C(3)-(1Nal)-(NMe-Chg)-[PAF(DOTA)]-(7Me-W)-N-C(3)-(aMe-P)-F-D-CONH2; (3)=disulfide) [Cpd #188]	Kd [5]: > 30 nM
7%	Ac-[dA][NMeS]D[AllylGly][1Nal][tBuAla][PAF(DOTA)][2Nal]N[AllylGly][αMeP]FD-NH2 (staple 4-10; reading uncertain; also: 177Lu chelated) [[177Lu]Lu-Cpd #195]	
6%	{DOTA}-[Ahx]SDC[1Nal][tBuAla][Ala(piperidin-4-yl)][2Nal]NC[αMeP]FD-NH2 (disulfide 4-10; also: 177Lu chelated) [[177Lu]Lu-Cpd #176]	
9%	Ac-[Ala(piperidin-4-yl)][NMeS]NC[1Nal][tBuAla][PAF(DOTA)][2Nal]DC[αMeP]FD-NH2 (disulfide 4-10; reading uncertain; also: 177Lu chelated, printed as Ac-[3-(4-piperidinyl)-Ala]-(NMe-Ser)-N-C(3)-(1Nal)-(t-Bu-Ala)-[PAF(DOTA)]-(2Nal)-D-C(3)-(aMe-P)-F-D-CONH2; (3)=disulfide; 177Lu chelated) [[177Lu]Lu-Cpd #192]	
